From patent US20120316113A1, “FGF BASED FIBRIN BINDING PEPTIDES” (Baxter Healthcare S.A., priority 2011, published 2012)

How the values were obtained:
fibrin clots = molecular target: T1, fibrin clots (Homo sapiens, UniProt P02671+P02675+P02679); assay: Stability of fibrin clots with aprotinin covalently bound through FS-anchors; format: biochemical; details: aprotinin EDC-coupled to the FS-anchor, clots kept in PBS at 37° C., after 5 days; compared with His-FGF-2 and pep1 anchors
T1 sequence (P02671 36-866 limits assumed): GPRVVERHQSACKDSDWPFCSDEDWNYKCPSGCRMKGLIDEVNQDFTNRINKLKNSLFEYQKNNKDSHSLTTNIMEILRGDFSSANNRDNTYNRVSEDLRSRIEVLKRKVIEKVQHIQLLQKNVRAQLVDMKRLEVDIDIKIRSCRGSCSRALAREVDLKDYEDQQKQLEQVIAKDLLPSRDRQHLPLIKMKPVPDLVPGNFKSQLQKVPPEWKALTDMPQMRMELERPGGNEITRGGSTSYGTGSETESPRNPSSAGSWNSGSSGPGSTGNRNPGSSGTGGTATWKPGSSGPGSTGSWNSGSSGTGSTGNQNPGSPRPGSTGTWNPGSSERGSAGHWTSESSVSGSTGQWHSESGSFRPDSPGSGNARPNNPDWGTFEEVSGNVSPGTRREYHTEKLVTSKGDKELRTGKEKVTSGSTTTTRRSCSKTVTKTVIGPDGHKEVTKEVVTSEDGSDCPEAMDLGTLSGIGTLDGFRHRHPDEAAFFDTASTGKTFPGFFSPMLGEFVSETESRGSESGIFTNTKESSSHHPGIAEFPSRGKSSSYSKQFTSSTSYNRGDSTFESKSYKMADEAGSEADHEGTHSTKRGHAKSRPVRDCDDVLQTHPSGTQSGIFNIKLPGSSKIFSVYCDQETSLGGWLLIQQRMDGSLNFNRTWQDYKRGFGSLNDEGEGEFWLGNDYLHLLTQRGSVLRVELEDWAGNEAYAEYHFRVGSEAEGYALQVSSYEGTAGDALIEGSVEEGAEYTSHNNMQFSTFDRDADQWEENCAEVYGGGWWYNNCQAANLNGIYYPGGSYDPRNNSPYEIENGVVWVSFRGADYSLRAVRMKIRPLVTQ
T1 sequence (P02675 45-491 limits assumed): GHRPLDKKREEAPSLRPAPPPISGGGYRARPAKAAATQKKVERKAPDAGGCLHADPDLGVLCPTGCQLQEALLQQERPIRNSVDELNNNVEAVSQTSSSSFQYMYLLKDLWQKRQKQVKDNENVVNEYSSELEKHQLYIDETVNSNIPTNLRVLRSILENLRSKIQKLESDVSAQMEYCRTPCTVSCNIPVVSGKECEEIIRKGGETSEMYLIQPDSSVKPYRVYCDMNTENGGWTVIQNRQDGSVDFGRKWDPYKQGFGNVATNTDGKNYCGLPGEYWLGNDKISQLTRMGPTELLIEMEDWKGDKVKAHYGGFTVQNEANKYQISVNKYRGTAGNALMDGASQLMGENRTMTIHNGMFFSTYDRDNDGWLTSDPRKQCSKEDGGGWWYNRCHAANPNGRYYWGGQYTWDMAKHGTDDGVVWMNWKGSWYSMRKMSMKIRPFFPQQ
T1 sequence (P02679 27-453): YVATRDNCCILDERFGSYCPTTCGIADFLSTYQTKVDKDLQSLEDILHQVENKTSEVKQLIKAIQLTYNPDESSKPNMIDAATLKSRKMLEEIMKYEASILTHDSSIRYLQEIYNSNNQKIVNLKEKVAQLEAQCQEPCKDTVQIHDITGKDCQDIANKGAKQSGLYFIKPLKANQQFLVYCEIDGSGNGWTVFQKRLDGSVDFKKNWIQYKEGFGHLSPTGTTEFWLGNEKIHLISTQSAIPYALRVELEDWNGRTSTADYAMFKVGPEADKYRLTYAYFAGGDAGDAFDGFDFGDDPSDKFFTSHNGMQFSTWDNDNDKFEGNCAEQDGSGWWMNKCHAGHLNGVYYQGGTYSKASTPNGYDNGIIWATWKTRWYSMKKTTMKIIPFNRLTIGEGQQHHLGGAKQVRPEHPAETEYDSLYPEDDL
From the text: Aprotinin was successfully covalently bound to one FS-anchor (His-FGF-2, pep1 (68 an), pep3 (37 aa) and pep4 (28 aa)) using a standard protocol for 1-ethyl-3-(3-dimethylaminopropyl)carbodiimide) (EDC) coupling (FIG. 8A). For a positive control recombinant human FGF-2 (ProSpec Tany, Israel) and for a negative control phosphate buffered saline (PBS) were used. Covalently linked to a FS-anchor and purified aprotinin was mixed with fibrinogen and finally with thrombin to form fibrin clots. These fibrin clots were kept in PBS at 37° C. to observe stability and degradation of fibrin.

fibrin = molecular target: T2, fibrin (Homo sapiens, UniProt P02671+P02675+P02679); assay: Fibrin binding assay by ELISA; details: fibrinogen-coated plate incubated with 10 I.U./ml thrombin, various concentrations
T2 construct: an activity for processing fibrinogen to fibrin, preferably a thrombin preparation; purchased Baxter AG, Vienna (Tisseel fibrinogen and Tisseel thrombin)
T2 sequence (P02671 36-866 limits assumed): T1 sequence (P02671 36-866 limits assumed)
T2 sequence (P02675 45-491 limits assumed): T1 sequence (P02675 45-491 limits assumed)
T2 sequence (P02679 27-453): T1 sequence (P02679 27-453)
Procedure: A polystyrene 96-well plate (Nunc® Maxisorp EUSA-plates) was coated with 1 mg/ml fibrinogen (Tisseel®, Baxter AG, Vienna) overnight at 4° C. and then blocked with blocking solution (PBS+1% BSA) for 2 hours at room temperature CRT). After washing three times with PBS, purified peptides were added in various dilutions to the plate and incubated for 1 hour at RT. After the three times washing with PBS, a monoclonal anti-His6-peroxidase antibody (Sigma-Aldrich, Vienna), diluted in PBS+0.1% Tween (Sigma-Aldrich, Vienna) was added and incubated for 1 hour at RT. Finally, the plate was washed three times with PBS again and wells were incubated with o-phenylenediaminehydrochlorid substrate. Absorbance was measured at 492 nm and 620 nm. For fibrin binding analysis, the plate was first coated with fibrinogen overnight at 4° C. and then incubated with 10 I.U./ml thrombin (Tisseel, Baxter AG, Vienna) for 30 minutes at 37° C. The following procedure was the same as described above. […] The signals were detected and recorded at the Reichert SR7000 Surface Plasmon Resonance Analytical Instrument (Reichert Analytical, NY, USA). […]

Sequence	stability of fibrin clots (fibrin clots)	binding affinity to fibrin (fibrin)
EDGRLLASKCVTDECFFFERLESNNYNTYRSRHHHHH (EDGRLLASKCVTDECFFFERLESNNYNTYRSRHHHHH; synthetic peptide pep 3 (37 aa), peptide #3, pep3 with C-terminus 5x HIS-tag) [also expressed recombinantly]	higher stability	
KCVTDECFFFERLESNNYNTYRSRHHHHH (KCVTDECFFFERLESNNYNTYRSRHHHHH; synthetic peptide pep 4 (29 aa), peptide #4, pep4 with C-terminus 5x HIS-tag)	higher stability	
FERLESNNYN TYRSRHHHHH (FERLESNNYNTYRSRHHHHH; synthetic peptide pep 5 (20 aa), peptide #5, pep5 with C-terminus 5x HIS-tag)		little binding affinity
